Data reported in patent publication US20230243836A1 (published 2023).

Key:
VISTA-Fc fusion protein [1] = target: T1, VISTA-Fc fusion protein (human); assay: biosensor, VISTA-Fc immobilized, PSGL-1B in flow (0.3-9.6 µM), HBS with Ca and Mg; equilibrium affinity analysis (1:1 model)
T1 construct: The limits of the VISTA and Fc parts are marked only by underline and bold, which are not preserved
T1 chain: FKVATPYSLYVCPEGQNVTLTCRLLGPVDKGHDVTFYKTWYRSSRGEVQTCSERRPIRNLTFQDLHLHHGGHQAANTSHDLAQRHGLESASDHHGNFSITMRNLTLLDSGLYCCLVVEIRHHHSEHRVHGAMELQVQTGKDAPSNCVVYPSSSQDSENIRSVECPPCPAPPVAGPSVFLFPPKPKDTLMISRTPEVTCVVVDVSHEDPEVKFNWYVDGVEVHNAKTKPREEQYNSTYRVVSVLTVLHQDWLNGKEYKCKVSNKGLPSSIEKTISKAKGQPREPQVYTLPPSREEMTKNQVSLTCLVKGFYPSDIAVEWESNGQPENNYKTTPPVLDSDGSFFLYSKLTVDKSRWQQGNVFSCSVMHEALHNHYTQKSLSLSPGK
Experimental: (§1) The immobilized VISTA-Fc sample was equilibrated in HEPES buffered saline (HBS) containing calcium (1.5 mM calcium chloride) and magnesium (1.0 mM magnesium chloride). The same buffer was used as running buffer. Samples containing the PSGL-1A or PSGL-1B, which also contained calcium and magnesium, were flowed across a solid surface containing the immobilized VISTA-Fc at a flow rate of 60 μl/min, with 120 seconds of contact time and 300 seconds for dissociation after the surface was regenerated with a 3 second pulse of glycine (pH 1.5). Six difference concentrations of PSGL-1A and PSGL-1B were assayed (0.3 μM, 0.60 μM, 1.20 μM, 2.4 μM, 4.8 μM and 9.6 μM).
(§2) Two different analyses of the experiments were performed: (1) a two-state binding model; and (2) an equilibrium affinity analysis (1:1 model).

VISTA-Fc fusion protein [2] = target: T1, VISTA-Fc fusion protein; assay: biosensor, VISTA-Fc immobilized, PSGL-1B in flow (0.3-9.6 µM), HBS with Ca and Mg; two-state binding model
Experimental: as §1, §2

VISTA-Fc fusion protein [3] = target: T1, VISTA-Fc fusion protein; assay: biosensor, VISTA-Fc immobilized; estimated affinity, called qualitative
[4] = target: T2, IgG1-Fc (RED Systems; 110-HG-100) (UniProt P01857-1 100-330 = IgG part); assay: Sulfo-SBED photo-crosslinking to HL-60 cells, Protein A pull-down, anti-PSGL-1 Western blot
T2 construct: domain: Fc; Negative control, coupled to Sulfo-SBED; also called negative isotype control IgG-Fc
Experimental: Also in these experiments, samples of VISTA-Fc fusion protein (described in Example I) and negative controls of an anti-CD28 antibody (BioXcell, BE0248) and IgG1-Fc (RED Systems; 110-HG-100) were covalently coupled to a bifunctional linker (Sulfo-SBED—ThermoFisher Scientific; 33073) using the manufacturing recommended conditions. The resulting samples were incubated with HL-60 cells for 30 min. at room temperature in a dark place. Crosslinking was photoactivated with a UV light source for 20 min. Cells were then lysed and a Protein A Sepharose pull-down was performed. A Western Blot using an anti-PSGL-1 polyclonal antibody (RED Systems; AF3345) or Streptavidin-HRP was performed on the samples.

VISTA-Fc fusion protein [5] = target: T1, VISTA-Fc fusion protein; assay: biosensor, VISTA-Fc immobilized, PSGL-1A in flow (0.3-9.6 µM), HBS with Ca and Mg; two-state binding model
Experimental: as §1, §2

VISTA-Fc fusion protein [6] = target: T1, VISTA-Fc fusion protein; assay: biosensor, VISTA-Fc immobilized, PSGL-1A in flow (0.3-9.6 µM), HBS with Ca and Mg; equilibrium affinity analysis (1:1 model)
Experimental: as §1, §2

Row | Kd (VISTA-Fc fusion protein [1]) [µM] | Kd (VISTA-Fc fusion protein [2]) [µM] | Kd (VISTA-Fc fusion protein [3]) [µM] | binding result [4] | Kd (VISTA-Fc fusion protein [5]) [µM] | Kd (VISTA-Fc fusion protein [6]) [µM] | Binder
1 | 4.76 | 5.09 | ~5 |  |  |  | PSGL-1 construct B (Fc-fused PSGL-1 with IgG kappa signal sequence and tandem repeat unit) (Fc fusion, Its limits are marked only by italic, which is not preserved; Cells were co-transfected with GCNT1 and FUT3 glycosyltransferases; also called PSGL-1B) DQATEYEYLDYDFLPETEPPEMLRNSTDTTPLTGPGTPESTTVEPAARRSTGLDAGGAVTELTTELANMGNLSTDSAAMEIQTTQPAATEAQTTQPVPTEAQTTPLAATEAQTTRLTATEAQTTPLAATEAQTTPPAATEAQTTQPTGLEAQTTAPAAMEAQTTAPAAMEAQTTPPAAMEAQTTQTTAMEAQTTAPEATEAQTTQPTATEAQTTPLAAMEALSTEPSATEALSMEPTTKRGLFIPFSVSSVTHKGIPMAASNLSVNYPVGAPDHISVARSVECPPCPAPPVAGPSVFLFPPKPKDTLMISRTPEVTCVVVDVSHEDPEVKFNWYVDGVEVHNAKTKPREEQYNSTYRVVSVLTVLHQDWLNGKEYKCKVSNKGLPSSIEKTISKAKGQPREPQVYTLPPSREEMTKNQVSLTCLVKGFYPSDIAVEWESNGQPENNYKTTPPVLDSDGSFFLYSKLTVDKSRWQQGNVFSCSVMHEALHNHYTQKSLSLSPGK
2 |  |  |  | no binding |  |  | P-selectin glycoprotein ligand 1 (PSGL-1) expressed on human cells (receptor, Endogenous protein on cells; also called SELPLG; CD162) QATEYEYLDYDFLPETEPPEMLRNSTDTTPLTGPGTPESTTVEPAARRSTGLDAGGAVTELTTELANMGNLSTDSAAMEIQTTQPAATEAQTTPLAATEAQTTRLTATEAQTTPLAATEAQTTPPAATEAQTTQPTGLEAQTTAPAAMEAQTTAPAAMEAQTTPPAAMEAQTTQTTAMEAQTTAPEATEAQTTQPTATEAQTTPLAAMEALSTEPSATEALSMEPTTKRGLFIPFSVSSVTHKGIPMAASNLSVNYPVGAPDHISVKQCLLAILILALVATIFFVCTVVLAVRLSRKGHMYPVRNYSPTEMVCISSLLPDGGEGPSATANGGLSKAKSPGLTPEPREDREGDDLTLHSFLP
3 |  |  | ~3 |  | 32.1 | 3.01 | PSGL-1 construct A (Fc-fused PSGL-1 with IgG kappa signal sequence and propeptide sequence) (Fc fusion, Their limits are marked only by italic and bold, which are not preserved; Cells were co-transfected with GCNT1 and FUT3 glycosyltransferases for post-translational modification; also called PSGL-1A) QATEYEYLDYDFLPETEPPEMLRNSTDTTPLTGPGTPESTTVEPAARRSTGLDAGGAVTELTTELANMGNLSTDSAAMEIQTTQPAATEAQTTPLAATEAQTTRLTATEAQTTPLAATEAQTTPPAATEAQTTQPTGLEAQTTAPAAMEAQTTAPAAMEAQTTPPAAMEAQTTQTTAMEAQTTAPEATEAQTTQPTATEAQTTPLAAMEALSTEPSATEALSMEPTTKRGLFIPFSVSSVTHKGIPMAASNLSVARSVECPPCPAPPVAGPSVFLFPPKPKDTLMISRTPEVTCVVVDVSHEDPEVKFNWYVDGVEVHNAKTKPREEQYNSTYRVVSVLTVLHQDWLNGKEYKCKVSNKGLPSSIEKTISKAKGQPREPQVYTLPPSREEMTKNQVSLTCLVKGFYPSDIAVEWESNGQPENNYKTTPPVLDSDGSFFLYSKLTVDKSRWQQGNVFSCSVMHEALHNHYTQKSLSLSPGK
